# Experimental data from doi:10.1101/2024.07.31.606000.
# Target: recombinant full-length thrombospondin-1 (human) (UniProt P07996)
# Test: SPR
# Chain of recombinant full-length thrombospondin-1 (human) (P07996 19-1170): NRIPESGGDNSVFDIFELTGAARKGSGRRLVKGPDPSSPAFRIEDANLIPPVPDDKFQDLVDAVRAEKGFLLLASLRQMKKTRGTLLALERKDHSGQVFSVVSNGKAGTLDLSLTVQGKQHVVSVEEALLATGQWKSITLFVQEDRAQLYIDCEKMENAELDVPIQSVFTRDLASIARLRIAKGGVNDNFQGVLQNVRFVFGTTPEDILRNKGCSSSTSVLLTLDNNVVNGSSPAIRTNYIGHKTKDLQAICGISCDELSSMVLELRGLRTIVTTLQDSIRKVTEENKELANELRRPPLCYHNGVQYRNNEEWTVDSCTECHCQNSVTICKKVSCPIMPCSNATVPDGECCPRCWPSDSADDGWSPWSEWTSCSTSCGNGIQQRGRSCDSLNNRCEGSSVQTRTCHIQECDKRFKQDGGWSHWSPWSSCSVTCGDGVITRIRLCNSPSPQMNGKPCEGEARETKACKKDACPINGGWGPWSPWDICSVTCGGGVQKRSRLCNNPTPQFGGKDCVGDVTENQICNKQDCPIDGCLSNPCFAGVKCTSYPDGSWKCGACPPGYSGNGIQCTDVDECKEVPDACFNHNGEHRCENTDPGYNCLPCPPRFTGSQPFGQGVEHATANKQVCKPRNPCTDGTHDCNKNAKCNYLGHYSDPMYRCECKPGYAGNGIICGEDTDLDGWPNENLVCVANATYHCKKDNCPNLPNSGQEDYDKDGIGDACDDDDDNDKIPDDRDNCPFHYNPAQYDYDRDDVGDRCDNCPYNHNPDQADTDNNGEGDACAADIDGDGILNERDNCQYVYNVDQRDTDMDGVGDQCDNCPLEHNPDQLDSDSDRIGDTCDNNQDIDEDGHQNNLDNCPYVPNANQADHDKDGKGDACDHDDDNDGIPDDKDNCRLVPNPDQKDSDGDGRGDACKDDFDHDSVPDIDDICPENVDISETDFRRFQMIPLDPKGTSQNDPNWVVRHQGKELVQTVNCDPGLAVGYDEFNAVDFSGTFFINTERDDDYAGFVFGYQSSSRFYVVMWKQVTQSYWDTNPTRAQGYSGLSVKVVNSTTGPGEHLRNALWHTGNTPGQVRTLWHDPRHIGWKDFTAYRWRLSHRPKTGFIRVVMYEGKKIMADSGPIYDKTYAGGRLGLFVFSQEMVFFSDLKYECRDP
row,Kd [nM],Substance
1,47,complement C5 (natural protein)
2,127,complement C3 (natural protein)
